Patent US20260070986A1 (AFFIMED, published 2026)

Columns and labels:
[1] = biological target: T1, recombinant cynomolgus neonatal Fc receptor (FcRn), biotinylated (cynomolgus, UniProt Q8SPV9 24-297, limits assumed, site-directed biotinylation at AviTag); assay: SPR (Biacore), 37 °C, pH 6.0, biotin-captured cynomolgus FcRn as ligand, steady-state affinity fit
T1 construct: also called cynomolgus FcRn
Protocol: (§1) Affinity parameters were evaluated for interaction with human FcRn, cynomolgus FcRn or murine FcRn using a Steady State Binding model (D-F).

[2] = biological target: T2, human CD16A (158F) on transfected CHO cells (cAg_34) (human, UniProt P08637 17-254); assay: flow cytometry on huCD16A-transfected CHO cells (cAg_34), one-site fit of MFI, experiment 3
T2 construct: Exact cell-anchored construct not described; also called huCD16A
Protocol: (§2) After washing in FACS buffer, cells were incubated in 50 μL FACS buffer without antibodies or with titrated antibodies starting at a concentration of 100 μg/mL followed by ten 5-fold serial dilutions for 30 min on ice in the dark. After washing twice, cells were incubated with APC-conjugated goat anti-human IgG (H+L)-APC (Dianova, cat. 109-136-088) for 30 min on ice in the dark. […] After washing, binding was measured by flow cytometry and mean fluorescence intensities (MFI) of cell samples were calculated and corrected for background staining using control cells stained with secondary antibodies only.
(§3) Equilibrium dissociation constants (KD) of antibody binding were calculated by plotting MFI values and fitting a non-linear regression model for one-site binding to hyperbolic dose-response curves using GraphPad Prism.

[3] = biological target: T3, recombinant murine neonatal Fc receptor (FcRn), biotinylated (murine, UniProt Q61559 22-297, limits assumed, site-directed biotinylation at AviTag); assay: SPR (Biacore), 37 °C, pH 6.0, biotin-captured murine FcRn as ligand, steady-state affinity fit
T3 construct: also called murine FcRn
T3 sequence (looked up): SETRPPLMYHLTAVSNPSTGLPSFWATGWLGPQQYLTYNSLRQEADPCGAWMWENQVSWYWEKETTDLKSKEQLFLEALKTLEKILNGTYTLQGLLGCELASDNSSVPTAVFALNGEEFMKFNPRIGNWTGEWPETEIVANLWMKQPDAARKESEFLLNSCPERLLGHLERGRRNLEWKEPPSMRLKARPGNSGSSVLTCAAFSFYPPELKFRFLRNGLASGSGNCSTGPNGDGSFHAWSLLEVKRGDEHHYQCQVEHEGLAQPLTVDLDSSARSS
Protocol: as §1

[4] = biological target: T2, human CD16A (158F) on transfected CHO …; assay: flow cytometry on huCD16A-transfected CHO cells (cAg_34), one-site fit of MFI, experiment 2
Protocol: as §2, §3

[5] = biological target: T2, human CD16A (158F) on transfected CHO …; assay: flow cytometry on huCD16A-transfected CHO cells (cAg_34), one-site fit of MFI, experiment 1
Protocol: as §2, §3

[6] = biological target: T4, recombinant human neonatal Fc receptor (FcRn), biotinylated (human, UniProt P55899 24-297, site-directed biotinylation at AviTag); assay: SPR (Biacore), 37 °C, pH 6.0, biotin-captured human FcRn as ligand, steady-state affinity fit
T4 construct: also called human FcRn
Protocol: as §1

[7] = biological target: T2, human CD16A (158F) on transfected CHO …; assay: flow cytometry on huCD16A-transfected CHO cells, anti-human IgG-APC detection
Protocol: To analyze binding of different antibody constructs to CHO cells transfected with human CD16A (cAg_34), relative to CD16 expression by flow cytometry, 1-2×10⁵ were resuspended in 100 μL FACS buffer (PBS (Invitrogen, cat.: 14190-169) containing 2% heat-inactivated FCS (Invitrogen, cat.: 10270-106), and 0.1% sodium azide (Roth, Karlsruhe, Germany, cat.: A1430.0100)) in round-bottom 96-well microtiter plates. After washing in FACS buffer, cells were incubated in 50 μL FACS buffer without antibodies or with titrated antibodies starting at a concentration of 100 μg/mL followed by ten 5-fold serial dilutions for 30 min on ice in the dark. After washing twice, cells were incubated with APC-conjugated goat anti-human IgG (H+L)-APC (Dianova, cat. 109-136-088) for 30 min on ice in the dark. […] After washing, binding was measured by flow cytometry and mean fluorescence intensities (MFI) of cell samples were calculated and corrected for background staining using control cells stained with secondary antibodies only.
as §3

[8] = biological target: T5, CD123 on CD123+ cells (EOL-1 and other CD123+ tumour or patient cells) (human, UniProt P26951 19-378); assay: flow cytometry on CD123+ EOL-1 cells, anti-human IgG-APC detection
T5 construct: whole, on cells; also called interleukin-3 receptor
Protocol: To analyze binding of CD123xCD16A antibody constructs to CD123+ EOL-1 cells, CD123− A-431 cells and CD123− Karpas-299 cells by flow cytometry, 1×10⁵ cells were resuspended in 100 μL FACS buffer in round-bottom 96-well microtiter plates. After washing in FACS buffer, cells were incubated in 100 μL FACS buffer without antibodies or with titrated antibodies starting at a concentration of 100 μg/mL followed by eight 10-fold serial dilutions for 45 min on ice in the dark. After washing twice, cells were incubated with APC-conjugated goat anti-human IgG (H+L)-APC (1/200 dilution) for 30 min on ice in the dark. After washing, binding was measured by flow cytometry and mean fluorescence intensities (MFI) of cell samples were calculated and corrected for background staining using control cells stained with secondary antibodies only.

[9] = biological target: T6, recombinant human FcγRIIA (CD32A), biotinylated (human, UniProt P12318 34-218, limits assumed, site-directed biotinylation at AviTag); assay: SPR (Biacore), 37 °C, biotin-captured human CD32A as ligand, steady-state plot; left-hand column, no heading on the sheet
T6 construct: also called human CD32A
T6 sequence (looked up): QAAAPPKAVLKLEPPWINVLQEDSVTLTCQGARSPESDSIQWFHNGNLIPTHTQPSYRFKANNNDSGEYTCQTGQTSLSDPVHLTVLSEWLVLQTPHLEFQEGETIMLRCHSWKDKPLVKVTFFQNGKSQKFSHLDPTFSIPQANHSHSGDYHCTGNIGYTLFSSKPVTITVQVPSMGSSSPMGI
Protocol: FIG. 21: SPR interaction analysis of antibody binding to CD32. […] Affinity parameters were evaluated for interaction with receptors using a Steady State Binding model.

T2 sequence (P08637 17-254 limits assumed): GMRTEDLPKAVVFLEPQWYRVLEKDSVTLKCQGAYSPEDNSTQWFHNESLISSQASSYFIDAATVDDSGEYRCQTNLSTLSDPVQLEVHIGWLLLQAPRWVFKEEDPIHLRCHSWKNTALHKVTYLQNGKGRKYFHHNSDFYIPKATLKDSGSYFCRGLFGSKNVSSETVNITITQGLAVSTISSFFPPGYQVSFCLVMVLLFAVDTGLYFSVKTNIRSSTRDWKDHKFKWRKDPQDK
T1 sequence (Q8SPV9 24-297 limits assumed, form in doubt): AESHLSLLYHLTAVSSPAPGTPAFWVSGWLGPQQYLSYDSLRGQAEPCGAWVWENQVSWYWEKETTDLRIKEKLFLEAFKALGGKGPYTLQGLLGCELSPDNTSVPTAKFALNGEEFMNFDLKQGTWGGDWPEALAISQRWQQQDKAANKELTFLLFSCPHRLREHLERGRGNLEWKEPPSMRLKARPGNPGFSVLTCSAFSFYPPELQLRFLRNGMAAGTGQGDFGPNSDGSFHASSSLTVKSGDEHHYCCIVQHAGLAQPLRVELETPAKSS
T4 sequence (P55899 24-297 limits assumed, form in doubt): as the sequence (Q8SPV9 24-297 limits assumed, form in doubt) above, with D39N, Q44E, S99G, G189S, N190S, M217L, T269S counted along it
T5 sequence (P26951 19-378): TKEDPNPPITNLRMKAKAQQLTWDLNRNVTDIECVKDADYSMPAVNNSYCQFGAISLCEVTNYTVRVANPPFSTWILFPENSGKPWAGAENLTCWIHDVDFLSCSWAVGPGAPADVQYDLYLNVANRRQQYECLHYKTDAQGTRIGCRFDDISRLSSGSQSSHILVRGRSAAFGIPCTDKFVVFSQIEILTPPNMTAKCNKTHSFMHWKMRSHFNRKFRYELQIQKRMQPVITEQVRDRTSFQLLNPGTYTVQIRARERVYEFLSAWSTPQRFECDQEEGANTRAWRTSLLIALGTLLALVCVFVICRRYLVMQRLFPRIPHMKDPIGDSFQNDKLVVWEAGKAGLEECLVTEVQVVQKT

B1: scFv-IgAb_268 (CD123-1xCD16a1) (bispecific antibody)
heavy: QVQLQQSGAEVKKPGASVKVSCKASGYTFTDYYMKWVKQSHGKSLEWMGDIIPSNGATFYNQKFKGKATLTVDRSTSTAYMELSSLRSEDTAVYYCARSHLLRASWFAYWGQGTLVTVSSASTKGPSVFPLAPSSKSTSGGTAALGCLVKDYFPEPVTVSWNSGALTSGVHTFPAVLQSSGLYSLSSVVTVPSSSLGTQTYICNVNHKPSNTKVDKKVEPKSCDKTHTCPPCPAPEFEGGPSVFLFPPKPKDTLMISRTPEVTCVVVAVSHEDPEVKFNWYVDGVEVHNAKTKPREEQYNSTYRVVSVLTVLHQDWLNGKEYKCKVSNKALPAPIEKTISKAKGQPREPQVYTLPPSREEMTKNQVSLTCLVKGFYPSDIAVEWESNGQPENNYKTTPPVLDSDGSFFLYSKLTVDKSRWQQGNVFSCSVMHEALHNHYTQKSLSLSPGGGGGSGGGGSGGGGSGGGGSGGGGSGGGGSSYELTQPLSVSVALGQTARITCGGNNIGSKSVHWYQQKPGQAPVLVIYQDKKRPSGIPERFSGSNSGNTATLTISRAQAGDEADYYCQVWDDYIVLFGCGTKLTVLGGSGGSGGSGGSGGSGGSGGSQVQLVQSGAEVKKPGASVKVSCKASGYTFTNYYMQWVRQAPGQCLEWMGIINPSGGVTSYAQKFQGRVTMTRDTSTSTVYMELSSLRSEDTAVYYCARGSAYYYDFADYWGQGTLVTVSS
light: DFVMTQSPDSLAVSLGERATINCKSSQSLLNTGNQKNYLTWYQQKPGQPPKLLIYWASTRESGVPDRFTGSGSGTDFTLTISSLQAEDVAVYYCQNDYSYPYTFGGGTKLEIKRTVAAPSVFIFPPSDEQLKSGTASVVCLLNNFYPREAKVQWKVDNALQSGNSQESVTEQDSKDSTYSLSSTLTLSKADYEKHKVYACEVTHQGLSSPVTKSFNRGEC
notes: also called AFM28; CD123xCD16A scFv-IgAb_268
[1]
  Kd: 238 nM
[2]
  Kd: 23.5 nM
[3]
  Kd: 72 nM
[4]
  Kd: 7.8 nM
[5]
  Kd: 17.7 nM
[6]
  Kd: 364 nM
[7]
  EC50 (read off the curve): ~8 nM
[8]
  EC50 (read off the curve): ~0.4 nM
[9]
  binding result: no binding
